For the assay, the target named is Biotin-aprotinin (UniProt P00974). Kind of assay: stopped-flow tryptophan fluorescence, avidin 0.5 µM, biotin-protein 5.0 µM.

Native avidin, sequence (P02701 25-152 limits assumed): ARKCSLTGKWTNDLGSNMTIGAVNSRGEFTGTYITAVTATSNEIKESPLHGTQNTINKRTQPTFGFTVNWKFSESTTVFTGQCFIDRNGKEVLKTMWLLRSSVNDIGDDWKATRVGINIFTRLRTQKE

Turning to “Native avidin (from UniProt P02701 25-152)”, the k (kobs, observed first-order rate constant) was 73.5 s⁻¹.

Values taken from patent publication US20210388337A1, “PROTEIN-POLYMER CONJUGATES AND METHODS FOR THEIR PREPARATION” (Carnegie Mellon University, priority 2018, published 2021).
